Data: patent US20230322887A1 (SHANGHAI MINWEI BIOTECHNOLOGY, published 2023)

Columns and labels:
[1] = molecular target: human glucagon receptor (human, UniProt P47871 26-477); assay: cell-based or functional assay
[2] = molecular target: human GLP-1 receptor (human, UniProt P43220 24-463); assay: cell-based or functional assay

Chain of human glucagon receptor (P47871 26-477): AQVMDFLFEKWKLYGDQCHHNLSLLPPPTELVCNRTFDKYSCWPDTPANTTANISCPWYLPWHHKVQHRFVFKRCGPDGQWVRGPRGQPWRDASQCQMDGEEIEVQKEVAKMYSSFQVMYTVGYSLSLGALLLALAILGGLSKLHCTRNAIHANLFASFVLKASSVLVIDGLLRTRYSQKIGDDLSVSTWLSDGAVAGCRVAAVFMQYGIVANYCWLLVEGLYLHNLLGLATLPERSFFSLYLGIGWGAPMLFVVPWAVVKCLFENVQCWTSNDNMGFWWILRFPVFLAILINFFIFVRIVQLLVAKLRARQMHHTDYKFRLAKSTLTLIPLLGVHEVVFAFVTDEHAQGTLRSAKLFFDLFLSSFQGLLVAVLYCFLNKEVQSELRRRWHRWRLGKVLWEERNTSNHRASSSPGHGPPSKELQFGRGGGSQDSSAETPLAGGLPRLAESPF

Molecule	EC50 human glucagon-R (CRE-luciferase reporter cells) [1]	% RLUGLP-1 (CRE-luciferase reporter, against the 100 ng/ml GLP-1 positive control) [2]	% RLUGlucagon (CRE-luciferase reporter, against the 100 ng/ml glucagon positive control) [1]
GLP-1 (from UniProt P01275 92-128) (ligand)	> 1000 µM		
HSQGTFTSDYSKYLDEQAAKEFIAWLIAGGPSSGAPPPS [GLP-1/glucagon dual agonist polypeptide expressed by clone 3D9]		286%	197%
HSQGTFTSDYSKYLDEQRAKDFIAWLIAGGPSSGAPPPS [GLP-1/glucagon dual agonist polypeptide expressed by clone 6B7]		123%	156%
HSQGTFTSDYSKYLDEQRAKEFVAWLIAGGPSSGAPPPS [GLP-1/glucagon dual agonist polypeptide expressed by clone 12C6]		183%	112%
